In publication PMC4643876, “Picomolar Inhibition of Plasmepsin V, an Essential Malaria Protease, Achieved Exploiting the Prime Region” (PLoS ONE, 2015):

What was measured:
[1] = biological target: GFP-tagged Plasmepsin V (PmV-GFP), P. falciparum clone DC6 (Plasmodium falciparum)
[2] = biological target: GFP-tagged Plasmepsin V (PmV-GFP), P. falciparum clone DC6 (Plasmodium falciparum); assay: enzyme inhibition (fluorogenic substrate cleavage), Ki calculated from IC50; bead-bound PmV-GFP at <=10 pM, 3 uM DABCYL-[…]-EDANS substrate, serial dilution of inhibitor 10 uM to 0.1 pM, 37 C, 50 mM Tris-Maleate pH 6.5, 50 mM NaCl, 0.05% TX-100, 2 mM DTT; Ki from IC50 = Ki (1 + [S]/KM)

Chain of GFP-tagged Plasmepsin V (PmV-GFP), P. falciparum clone DC6 (Plasmodium falciparum) (Q8I6Z5 whole entry): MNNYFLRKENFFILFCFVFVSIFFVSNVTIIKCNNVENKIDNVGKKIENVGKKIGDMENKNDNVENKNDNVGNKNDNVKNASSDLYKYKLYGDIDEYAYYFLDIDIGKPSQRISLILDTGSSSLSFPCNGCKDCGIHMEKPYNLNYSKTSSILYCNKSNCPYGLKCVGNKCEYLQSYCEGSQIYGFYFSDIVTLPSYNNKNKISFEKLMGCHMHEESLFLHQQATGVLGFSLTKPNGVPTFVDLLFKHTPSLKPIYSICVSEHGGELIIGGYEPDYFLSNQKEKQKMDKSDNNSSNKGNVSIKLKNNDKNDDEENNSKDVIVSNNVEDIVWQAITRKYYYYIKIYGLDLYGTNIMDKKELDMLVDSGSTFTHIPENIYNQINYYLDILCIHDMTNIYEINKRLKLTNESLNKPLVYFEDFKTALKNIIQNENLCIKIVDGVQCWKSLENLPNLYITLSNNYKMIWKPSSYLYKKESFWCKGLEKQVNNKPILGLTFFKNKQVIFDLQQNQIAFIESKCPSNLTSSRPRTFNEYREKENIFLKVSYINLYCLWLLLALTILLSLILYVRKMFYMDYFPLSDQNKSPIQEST

Compound 1 (LG20), RL[L~A]EA (peptide)
IC50 of inhibition of PmV cleavage of the fluorogenic HRPII-PExEl substrate (enzyme pre-mixed with inhibitor) [1]: 0.367 nM
IC50 of inhibition of PmV cleavage of the fluorogenic HRPII-PExEl substrate (inhibitor added after the reaction was initiated) [1]: 0.329 nM
Ki [2]: 0.197 nM
